Reference: patent US9289468B2, “Fusion protein comprising circularly permuted form of trail/Apo2L, coding gene and use thereof” (Beijing Sunbio Biotech Co. Ltd., priority 2011, dated 2016)

Legend:
[1] = test system: human multiple myeloma cell RPMI 8226; test: Morphological observation of induced apoptosis (MGG staining); type: cell-based; settings: 200 ng/ml, 3 h
Protocol: FIG. 3. The morphological change of the apoptosis of human multiple myeloma cell RPMI 8226 induced by NCPT-1.M1. The cells were incubated with NCPT-1.M1 (200 ng/ml) for 3 h and then prepared as smears before MGG staining.
The RPMI 8226 cells (ATCC) were cultured in cell culture flasks until logarithmic growth phase, collected by centrifugation, resuspended with complete medium (10% FBS-RPMI1640) at 1×10^6/well, added into 6-well cell culture plate (Costar). The NCPT-1.M1 was diluted with complete medium, added to a final concentration of 200 ng/ml, incubated at 37° C. in 5% CO2 incubator for 3 h. The cells were collected, prepared as smears, fixed with methanol before May-Grünwald-Giemsa (MGG, May-Grünwald stain, commercial available from Beijing ZhongYe HengYuan Chemicals, Giemsa stain, commercial available from Solarbio) staining.

[2] = test system: NCI-H460 cells; test: Internucleosomal DNA fragmentation (agarose gel electrophoresis); type: cell-based, human; settings: 15 ng/ml, 2 hours
Protocol: FIG. 5. The agarose gel electrophoresis analysis of internucleosomal DNA fragmentation of NCI-H460 cells after incubated with NCPT-1.M1 for varying time.
Marker: 200 bp-2000 bp DNA markers with 200 bp interval;
Control: solvent control;
2 h, 4 h, 6 h: represent incubation with 15 ng/ml NCPT-1.M1 for 2 h, 4 h, 6 h, respectively.
NCI-H460 cells at logarithmic growth phase were incubated with NCPT-1.M1 (a final concentration of […]) for 2 h, 4 h, 6 h, and the medium control group was not added with NCPT-1.M1. All adherent and floating cells (approximately 5×10^6) were collected, and DNA was extracted (Wen Jinkun, Principles and experimental techniques of medical molecular biology, 236-237 (1999)). DNA sample was removed and mixed with 6× loading buffer, and subjected to 1.8% agarose gel (a final concentration of ethidium bromide of 0.5 μg/ml) electrophoresis. The gel was observed under ultraviolet light source and photographed, and analyzed for DNA fragmentation. […] To the contrary, in the DNA electrophoresis of the medium control group, a band corresponding to a macromolecule is very near to the loading well, and there is no DNA fragmentation ladder. With the increasing incubation time with NCPT-1.M1, the DNA ladder becomes weaker and vague, and is illegible (FIG. 5), which might be due to DNA being degraded into smaller fragments.

[3] = test system: human MM RPMI8226 tumor cells; test: Apoptosis-inducing activity in vivo, RPMI8226 xenograft; design: species or system Balb/c nu athymic nude mice
Excerpt: Athymic nude mice were subcutaneously inoculated with human MM RPMI8226 tumor cells and treated with NCPT-1.M1, then tumor tissue was resected and subjected to conventional HE staining (A, B) and TUNEL staining of apoptotic cells (C, D).
Balb/c nu athymic nude mice (Beijing Huafukang Biotechnology Co., Ltd.) were subcutaneously inoculated with human MM RPMI8226 tumor cells. When the tumor grew to the volume of 700-800 mm3, the mice were divided into a control group (n=3) and a CPT treatment group (n=3), and were intraperitoneally injected with control or NCPT-1.M1 at a dose of 15 mg/kg once a day for 3 consecutive days. On day 4, the tumor volumes were measured (method same as the above), all animals were sacrificed, the tumors were resected and fixed in 10% formaldehyde solution. The tumor tissues were embedded in paraffin, cut into sections, and HE stained following the conventional methods. The apoptotic assay of the paraffin-embedded tissue sections were carried out following instructions of TUNEL Apoptosis Detection Kit (ZK-8005, Beijing Zhongshan Golden Bridge Biotechnology Co., Ltd.). […] To the contrary, the nucleus of normal cells are light blue or blue (FIG. 7A). Upon TUNEL staining, the nuclei of apoptotic cells are stained as brown (FIG. 7D).

[4] = test system: NCI-H460 human lung tumor; test: Combination with paclitaxel and carboplatin on human lung cancer xenograft tumor; type: in vivo, Balb/c nu athymic nude mice; settings: H460 tumor nude mice
Protocol: 5-6 weeks old Balb/c nu athymic nude mice ♂ (provided by Institute of Experimental Animals, Chinese Academy of Medical Sciences) were subcutaneously inoculated with NCI-H460 human lung tumor. When the tumor grew to the size of about 150 mm3, the mice were divided into following and administered: normal saline control group (ip.), NCPT-1.M1 monotherapy group (15 mg/kg, i.p., once a day for 9 consecutive days), chemotherapy group (PC regimen: paclitaxel 30 mg/kg i.p. and carboplatin 60 mg/kg i.p., administered once on the first day), NCPT-1.M1 combination chemotherapy group (administration manner and dosage of each drug are same as the above). During the experiment, the tumor length diameter (a) and wide diameter (b) were measured every two days with a vernier caliper, and tumor volume (, TV) is calculated according to the following formula: TV=½×a×b^2. From the above, the relative tumor volume (RTV) was calculated according to following formula: RTV=Vt/V0. Wherein V0 is the tumor volume measured on the day of the administration, but before administration (i.e., d0), and Vt is the tumor volume measured every time. The relative tumor proliferation rate T/C (%) is used as an evaluation index.
T/C %=RTVT/RTVC*100%. (RTVT: RTV of the treatment group; […]: RTV of the negative control group).

[5] = test system: H460 cells; test: Time-effect relationship in killing lung cancer cell line (phase contrast morphology); type: cell-based, human; settings: 50 ng/ml
Protocol: FIG. 1. Observation of the killing effect of NCPT-1.M1 on H460 cells under phase contrast microscope.
At 37° C., H460 cells (ATCC) were adherently cultured to logarithmic growth phase in RPMI1640 medium containing 10% FBS in cell culture flask in 5% CO2 incubator.

[6] = test system: H460 cells; test: Cell survival by MTT assay with or without Caspase-8 inhibitor zIETD-fmk; type: cell-based, human; settings: 24 h
Protocol: H460 cells were incubated with NCPT-1.M1 (1.2 or 10 ng/ml) in the presence or absence of Caspase-8 inhibitor zIETD-fmk (concentration of 30 μmmol/L, added 1 h earlier than NCPT-1.M1) for 24 h, and then cell survival rate was measured by MTT assay.
H460 cells were incubated with NCPT-1.M1 of 1.2 ng/ml and 10 ng/ml (the culture method is same as the above) for 24 h, and cell survival rates measured by MTT assay were 60% and 16%, respectively. […] Caspase-8 inhibitor zIETD-fmk (Santa Cruz) was added, and 1 h later, 1.2 ng/ml or 10 ng/ml NCPT-1.M1 was added and co-incubated for 24 h, then, the resulting cell survival rates were 100% and 90%, respectively.

[7] = NCPT-1.M1 15 mg/kg i.p. x9 days, paclitaxel 30 mg/kg, carboplatin 60 mg/kg i.p. once day 1

B1: NCPT-1.M1: MG+His6+NCPT-1 fusion protein, SEQ ID NO: 5 (protein)
chain: MGHHHHHHTLSSPNSKNEKALGRKINSWESSRSGHSFLSNLHLRNGELVIHEKGFYYIYSQTYFRFQEEIKENTKNDKQMVQYIYKYTSYPDPILLMKSARNSCWSKDAEYGLYSIYQGGIFELKENDRIFVSVTNEHLIDMDHEASFFGAFLVGGGGGGRVAAHITGTRGRSNT
modifications: NCPT-1.M1 polypeptide sequence
morphological features of apoptosis (MGG staining) [1]: obvious features of apoptosis were observed
DNA fragmentation ladder [2]: showed obvious ladder
average tumor volume after treatment ([3]; 15 mg/kg i.p. once a day for 3 consecutive days, day 4): 286 mm^3
apoptosis of tumor cells in tumor tissue (HE and TUNEL staining) ([3]; 15 mg/kg i.p. once a day for 3 days): can quickly result in apoptosis of a lot of MM tumor cells
average tumor volume before dosing ([3]; RPMI8226 xenograft, before dosing): 798 mm^3
Body weight(g) begining [4, 7]: 19.9 ± 3.08 g
Body weight(g) ending [4, 7]: 20.9 ± 3.32 g
RTV ([4]; same regimens): 7.32 ± 3.736
T/C ([4]; same regimens): 43.9%
Tumor size(mm^3) begining ([4]; same regimens, begining): 156 ± 82.6 mm^3
Tumor size(mm^3) ending ([4]; same regimens, ending): 867 ± 255.7 mm^3
incubation time for appearance of morphological apoptosis changes [5]: 1-2 h
incubation time resulting in apoptosis of maximum number of cells [5]: 6 h
cell survival rate ([6]; 1.2 ng/ml, 30 μmol/L zIETD-fmk added 1 h earlier): 100%
cell survival rate ([6]; 1.2 ng/ml, no inhibitor): 60%
cell survival rate ([6]; 10 ng/ml, 30 μmol/L zIETD-fmk added 1 h earlier): 90%
cell survival rate ([6]; 10 ng/ml, no inhibitor): 16%
